From the nanobody polyreactivity screen of Harvey et al. (2022) come the findings set out here.

The nature of the data set: yeast display, Sf9 membrane polyspecificity reagent, FACS + sequencing; frameworks hold sequencing errors. In a few lines: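 Synthetic nanobody libraries on Saccharomyces cerevisiae BJ5465 were galactose-induced for 36–48 hours, stained 1 hour at 4 °C with 10% biotinylated, detergent-solubilized Sf9 membrane reagent and enriched on streptavidin microbeads. FACS then separated cells into low and high (top ~1%) gates by anti-HA (expression) and streptavidin (reagent binding) fluorescence. Genes were colony-PCR amplified, MiSeq 2 × 250 sequenced and CDR-length filtered. A clone's polyreactivity label is that of its gate of origin.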
As for “QVQLVESGGGLVQAGGSLRLSCAASGRIFGYYVMGWYRPAPGKERELVAAISRSGGSTYYADSVKGRFTISRDNAKNTVYLQMNSLKPEDTAVYYCAKRVSTYGFSGYDYWGQGTQVTVSS”, the “polyreactivity (PSR sort gate)” value is on record as “high polyreactivity”.
For “QVQLVESGGGLVQAGGSLRLSCAASGRIFHANAMGWYRQAPGKERELVAGISRNGGRTYYADSVKGRFTISRDNAKNTVYLQMNSLKPEDTAVYYCAKGHKFRFDYWGQGTQVTVSS”, the “polyreactivity (PSR sort gate)” value is recorded as “high polyreactivity”.
With “QVQLVESGGGLVQAGGSLRLSCAASGRIFHFYAMGWYRQAPGKERELVAAISWSGGSTYYADSVKGRFTISRDNAKNTVYLQMNSLKPEDTAVYYCSKVRGEVAHRKVQYDYWGQGTQVTVSS” the entry was “low polyreactivity”; with “QVQLVESGGGLVQAGGSLRLSCAASGRIFHFYVMGWYRQAPGKERELVASITRGGNTNYADSVKGRFTISRDNAKNTVYLQMNSLKPEDTAVYYCNGEGYYTRDDSWGQGTQVTVSS”, “low polyreactivity”; with “QVQLVESGGGLVQAGGSLRLSCAASGRIFHGNAMGWYRQAPGKERELVAAITSGGRTFYADSVKGRFTISRDNAKNTVYLQMNSLKPEDTAVYYCNAPSIAGYAEYNSHDYWGQGTQVTVSS”, “high polyreactivity”.
With “QVQLVESGGGLVQAGGSLRLSCAASGRIFHPNAMGWYRRATGKERELVAAISRSGSTYYADSVKGRFTISRDNAKNTVYLQMNSLKPEDTAVYYCATQTWSGYSGTPRIYDYWGQGTQVTVSS” the entry was “high polyreactivity”; with “QVQLVESGGGLVQAGGSLRLSCAASGRIFHQYGMGGYSQAPGKERELVAAIRSGDSTNYADSVKGRFTISRDNAKNTVYVQMNSLKPEDTAVYYCARDRPGDYAGYDYWGQGTQVTVSS”, “low polyreactivity”.
On to “QVQLVESGGGLVQAGGSLRLSCAASGRIFHSKAMGWYRQAPGKERELVAAITWSTGRTYYADSVKGRFTISRDNAKNTVYLQMNSLKPEDTAVYYCFRFSYYTGDYWGQGTQVTVSS”, for which the “polyreactivity (PSR sort gate)” value is given as “high polyreactivity”.
With “QVQLVESGGGLVQAGGSLRLSCAASGRIFHYNDMVWYRQAPGKEREFVATIRYSGGSTYYADSVKGRFTISRDNAKNTVYLQLNSLKPEDTAVYYCATSRRYLRFRNYYGYDYWGQGTQVTVSS”, the “polyreactivity (PSR sort gate)” value was “high polyreactivity”.
On to “QVQLVESGGGLVQAGGSLRLSCAASGRIFHYYAMGWYRQAPGKERELVAAITSSGGSTYYADSVKGRFTISRDNAKNTVYLQMNSLKPEDTAVYYCAAGLIVGRFLRYDYWGQGTQVTVSS”, for which the “polyreactivity (PSR sort gate)” value is recorded as “high polyreactivity”.
With “QVQLVESGGGLVQAGGSLRLSCAASGRIFIGNAMGWYRQAPGKERELVAAITWSGDDSTYYADSVKGRFTISRDNAKITVYLQMNSLKTEDTAVYYCAAYSYYYEYNYWGQGTQVTVSS” the entry was “low polyreactivity”.
Consider “QVQLVESGGGLVQAGGSLRLSCAASGRIFINVLGWSRQAPGKETELVATITNSGGSTYYADSVKGRFTISRDNAKNTVYLQMNSLKPEDTAVYYCAKRSYHRYGVYRYDYWGQGTQLTVSS”, for which the “polyreactivity (PSR sort gate)” value is “high polyreactivity”.
For “QVQLVESGGGLVQAGGSLRLSCAASGRIFIRNAMGWYRQAPGKERELVAAITWSGGGTYYADSVKGRFTISRDNAKNTVYLQMNSLKPEDTAVYYCNVDITGYEDDYWGQGTQVTVSS” the value was “low polyreactivity”; for “QVQLVESGGGLVQAGGSLRLSCAASGRIFISNAKGWYIQAPGKERELVAAITWIGDRTYYADSVKGRFTISRDNAKITVYLEMNSLKPEDTAVYYCNRVTSRVSGRYSYEYWGQVTQVTVSS”, “high polyreactivity”.
With “QVQLVESGGGLVQAGGSLRLSCAASGRIFIYYAMGWDRQAPGKERELVAAISWGGGRTYYADSVKGRFTISRDNAKNTVYLQMNSLKPEDTAVYYCAAGVYTGQHEYDYWGQGTQVTVSS” the entry was “low polyreactivity”.
With “QVQLVESGGGLVQAGGSLRLSCAASGRIFIYYAMGWYRQAPGKERELVAAISWGGGRTYYADSVKGRFTITRDNAKNTVYLQINSLKPEDTAVYYCAAGVYTGQHEYDYWGQGTQVTVSS” the entry was “low polyreactivity”; with “QVQLVESGGGLVQAGGSLRLSCAASGRIFIYYAMGWYRQAPGKERELVAAITRGGNTNYADSVKGRFTISRDNAKNTVYLQMNSLKPEDTAVYYCAAAIRYGSRHRGYWGQGTQVTVSS”, “low polyreactivity”.
In the case of “QVQLVESGGGLVQAGGSLRLSCAASGRIFKDNAMGWYRQAPGKERELLATIDSGGDTNYADSVKGRFTISRDNAKNTVYLQMNSLKPEDTAVYYCNTEGFLSAVFAFGYWGQGTQVTVSS”, the “polyreactivity (PSR sort gate)” value was “low polyreactivity”.
For the sequence “QVQLVESGGGLVQAGGSLRLSCAASGRIFKDYAMGLYRQAPGKERELVAGIDYRGGSTYYADSVKGRFTISRDNAKNTVYLQMNSLKPEDNAVYYCAADSLISIYDYWGQGTQVTVSS”, the “polyreactivity (PSR sort gate)” value is “low polyreactivity”.
With “QVQLVESGGGLVQAGGSLRLSCAASGRIFKFNAMGWYREAPGKERELVAAITTGGGSTYYADSVKGRFTISRDNAKNTVYLQMNSLKPEDTAVYYCATDRRHEYSSRRYYYWGQGTQVTVSS” the entry was “high polyreactivity”; with “QVQLVESGGGLVQAGGSLRLSCAASGRIFKFYTMGWDRQAPGKERELVASIDSTGGSTYYADSVKGRFTISRDNAKNTVYLQMNSLKPEDTAVYYCAAEWIWSSNWYKKYDYWGQGSQVTVSS”, “high polyreactivity”.
With “QVQLVESGGGLVQAGGSLRLSCAASGRIFKGYAMGWYRQAPGKERELVAAITWRGGTTYYADSVKGRFTISRDNAKNTVYLQMNSLKPEDTAVYYCATTRYPRSYQEFGYWGQGTQVTVSS” the entry was “high polyreactivity”.
For “QVQLVESGGGLVQAGGSLRLSCAASGRIFKGYAMGWYRQAPGKERELVAAITWRGGTTYYADSVKGRFTISRDNAKNTVYLQMTSLKPEDTAVYYCARARPTGYNYWGQGTQVTVSS” the value was “high polyreactivity”; for “QVQLVESGGGLVQAGGSLRLSCAASGRIFKNNAMGWYRQAPGKERELVAGISRSGGRTYYADSVKGRFTISRDNAKNTVYLQMNSLKPEDTAVYYCNAYAYYSHGVTTTYDYWGQGTQVTVSS”, “high polyreactivity”.
As to “QVQLVESGGGLVQAGGSLRLSCAASGRIFKRSVMGWYRQAPGKERELVAAITGRGGSTYYADSVKGRFTISRDNAKNTVYLQMNSLKPEDTAVYYCNAKDAEHYERFNYWGQGTQVTVSS”, the “polyreactivity (PSR sort gate)” value is “low polyreactivity”.
For “QVQLVESGGGLVQAGGSLRLSCAASGRIFKRYAMGWYRQAHGKERELVASITWSGGSTYYADSVKGRFTISRDNAKNTVYLQMNSLKPEDTEVYYCAARRTATTSRAYYYWGQGTQVTVSS” the value was “high polyreactivity”; for “QVQLVESGGGLVQAGGSLRLSCAASGRIFKRYAMGWYRQAPGKERELVAAITRSGTRTYYADSVKGRFTISRDNAKNTVYLQMNSLKPEDTAVYYCAAALGWYSAFGYWGQGTLVTVSS”, “high polyreactivity”.
Regarding “QVQLVESGGGLVQAGGSLRLSCAASGRIFKRYAMGWYRQAPGKERELVAAITYNSGSTYYADSVKGRFTISRDNAKNTVYLQMNSLKPEDTAVYYCAAEKWSDQSPRGDYWGQGTQVTVSS”, the “polyreactivity (PSR sort gate)” value is “low polyreactivity”.
For “QVQLVESGGGLVQAGGSLRLSCAASGRIFKSYVMGWYRQAPGKERELVAAITRTGGSTYYADSVKGRFTISRDNAKYTVYLQMNSLTPEDTAVYYCNARYSWPRATWYDYWGQGTQVTVSS”, the “polyreactivity (PSR sort gate)” value is listed as “high polyreactivity”.
With “QVQLVESGGGLVQAGGSLRLSCAASGRIFKTNAMGWYRQAPGKERELVAAISWRGVGTYYADSVKGRFTISRDNAKNTVYLQMNSLKPEDTAVYYCAARWTVPRDTAPSKGYDYWGQGTQVTVSS” the entry was “low polyreactivity”; with “QVQLVESGGGLVQAGGSLRLSCAASGRIFKTYTMGWYRQAPGKERELVAVITSGGGTYYADSVKGRFTISRDNAKNTVYLQMNSLKPEDTAVYYCAARGLESPYGYWGQGTQVTVSS”, “low polyreactivity”.
With “QVQLVESGGGLVQAGGSLRLSCAASGRIFKVNAMGWYRQAPGKERELVAVINSRGGSTYYADSVKGRFTISRDNAKNTVYLQMNSLKPEDTAVYYCAAPLTYFKRVYYWGQGTQVTVSS”, the “polyreactivity (PSR sort gate)” value is on record as “high polyreactivity”.
For “QVQLVESGGGLVQAGGSLRLSCAASGRIFKWNAMGWYRQAPGKERELVAAISLSGGSTYYADSVKGRFTISRDKAKNTVYLQMNSLKPEDTAVYYCNAYAYHRYGYWGQGTQVTVSS” the value was “high polyreactivity”; for “QVQLVESGGGLVQAGGSLRLSCAASGRIFKWNAMGWYRQAPGKERELVAAISTSGGNTYYADSVKGRFTISRDYAKNTVYLQMNSLKPEDTAVYYCAATYPNSLRQVGYWGQGTQVTVSS”, “high polyreactivity”; for “QVQLVESGGGLVQAGGSLRLSCAASGRIFKYNAMGWYRQAPGKERELVAAIRRSGGSTYYADSVKGRFTISRDNAKNPVYLQMNSLNPEDTAVYYCAATGYVGGIYGHYPRGYWGQGTQVTVSS”, “high polyreactivity”.
On to “QVQLVESGGGLVQAGGSLRLSCAASGRIFKYNAMGWYRQAPGKERELVAAISGRGVSTYYADSVKGRFTISRDNAKNTVYLQMNSLKPEDTAVYYCAAETVHGSADFDYWGQGTKVTVSS”, for which the “polyreactivity (PSR sort gate)” value is given as “low polyreactivity”.
For “QVQLVESGGGLVQAGGSLRLSCAASGRIFKYYAMGWFRQAPGKERELVAAISSGSSTNYADSVKGRFTISRDTAKNTVYLQMNSLKPEDTAVYYCAAKYYRSKFDFWGQGTQVTVSS” the value was “high polyreactivity”; for “QVQLVESGGGLVQAGGSLRLSCAASGRIFKYYAMGWYRQAPGKERELVAAINRDGGRTYYADSVKGRFTISRDNAKNTVYLQMNRLKPDDTAVYYCAASYGYWGQGSQVTVSS”, “low polyreactivity”.
With “QVQLVESGGGLVQAGGSLRLSCAASGRIFKYYAMGWYRQAPGKERELVAAISRGGSTYYADSVKGRFTISRDNAKNTVYLQMNSLKPEDTAVYYCNRLSNNREYDYWGQGTQVTVSS” the entry was “high polyreactivity”; with “QVQLVESGGGLVQAGGSLRLSCAASGRIFKYYAMGWYRQAPGKERELVARISSRGGSTNYADSVKGRFTISRDNAKNTVYLQMNSLKPEDTAVYYCAAQYQNFPYGYWGQGTQVTVSS”, “high polyreactivity”.
For “QVQLVESGGGLVQAGGSLRLSCAASGRIFKYYAMGWYRQPPGKERELVAAISRSSGRTYYADSVKGRCTISRDNAKNTVYFQMIRLKPEDTAVYYCNALPSTVYLTYDYWGLGTQVTVSS” the value was “high polyreactivity”.
